Among the data in patent US20180071366A1 are hAMYR3 EC50 [nM] (cAMP formation, 1321N1 cells expressing hAMYR3) and hCT-R EC50 [nM] (cAMP formation, 1321N1 cells expressing hCT-R) values, retold here.

Numbered stars: 1 amine (or outer) side, 2 acyl side, 3 side chain; on linkers, the order of the positions; unused ones are H or OH. Bridge positions count the residues as written; N and C are the ends. Square brackets hold non-standard residues; d marks the D form. * marks the point of attachment. C20 diacid = O=C(O)CCCCCCCCCCCCCCCCCCC(=O)*; γGlu = O=C(O)[C@H](CCC(=O)[*:2])N[*:1]; Hyp = O=C(O)[C@@H]1C[C@@H](O)CN1; NMeI = CC[C@H](C)[C@H](NC)C(=O)O; Aad = N[C@@H](CCCC(=O)O)C(=O)O; Orn = NCCC[C@H](N)C(=O)O; Sar = CNCC(=O)O

For experiment [1], the target named is recombinant human amylin 3 receptor (hAMYR3) (human), P30988. Briefly: cell-based or functional assay.
Chain of recombinant human amylin 3 receptor (hAMYR3) (human), P30988 (P30988 25-474, chain 1 of 2): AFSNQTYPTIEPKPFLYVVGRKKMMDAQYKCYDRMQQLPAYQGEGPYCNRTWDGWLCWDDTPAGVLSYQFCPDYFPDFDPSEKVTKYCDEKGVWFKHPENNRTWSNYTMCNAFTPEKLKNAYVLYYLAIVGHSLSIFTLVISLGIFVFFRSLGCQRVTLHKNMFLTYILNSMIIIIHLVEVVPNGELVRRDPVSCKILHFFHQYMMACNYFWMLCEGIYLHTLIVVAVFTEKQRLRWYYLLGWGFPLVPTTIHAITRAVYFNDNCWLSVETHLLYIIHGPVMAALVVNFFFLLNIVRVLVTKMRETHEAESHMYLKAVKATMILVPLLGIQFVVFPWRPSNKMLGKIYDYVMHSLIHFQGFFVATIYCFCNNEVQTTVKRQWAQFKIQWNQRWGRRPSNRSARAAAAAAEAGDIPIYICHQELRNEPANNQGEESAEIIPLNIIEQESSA
Chain of recombinant human amylin 3 receptor (hAMYR3) (human), P30988 (O60896 24-148, chain 2 of 2, further chain): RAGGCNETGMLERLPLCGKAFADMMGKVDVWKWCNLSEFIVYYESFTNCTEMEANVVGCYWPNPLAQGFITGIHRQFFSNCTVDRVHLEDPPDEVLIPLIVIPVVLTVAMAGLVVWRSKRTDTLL
The target of experiment [2] is recombinant human calcitonin receptor (hCT-R) (human), P30988. Briefly: cell-based or functional assay.
Chain of recombinant human calcitonin receptor (hCT-R) (human), P30988 (P30988 25-474): as the sequence (P30988 25-474, chain 1 of 2) above

B1: Ref. 4 (peptide)
peptide: {C20 diacid-γGlu}-RCGTATCATERLA[Aad]FLQRSSF[Sar]A[NMeI]LSSTEVGSNT[Hyp]-NH2
modifications: disulfide 2-7
SMILES: CC[C@H](C)[C@@H](C(=O)N[C@@H](CC(C)C)C(=O)N[C@@H](CO)C(=O)N[C@@H](CO)C(=O)N[C@H](C(=O)N[C@@H](CCC(=O)O)C(=O)N[C@H](C(=O)NCC(=O)N[C@@H](CO)C(=O)N[C@@H](CC(N)=O)C(=O)N[C@H](C(=O)N1C[C@H](O)C[C@H]1C(N)=O)[C@@H](C)O)C(C)C)[C@@H](C)O)N(C)C(=O)[C@H](C)NC(=O)CN(C)C(=O)[C@H](Cc1ccccc1)NC(=O)[C@H](CO)NC(=O)[C@H](CO)NC(=O)[C@H](CCCNC(=N)N)NC(=O)[C@H](CCC(N)=O)NC(=O)[C@H](CC(C)C)NC(=O)[C@H](Cc1ccccc1)NC(=O)[C@H](CCCC(=O)O)NC(=O)[C@H](C)NC(=O)[C@H](CC(C)C)NC(=O)[C@H](CCCNC(=N)N)NC(=O)[C@H](CCC(=O)O)NC(=O)[C@@H](NC(=O)[C@H](C)NC(=O)[C@@H]1CSSC[C@H](NC(=O)[C@H](CCCNC(=N)N)NC(=O)CC[C@H](NC(=O)CCCCCCCCCCCCCCCCCCC(=O)O)C(=O)O)C(=O)NCC(=O)N[C@@H]([C@@H](C)O)C(=O)N[C@@H](C)C(=O)N[C@@H]([C@@H](C)O)C(=O)N1)[C@@H](C)O
Consider B1, for which the hAMYR3 EC50 [nM] (cAMP formation, 1321N1 cells expressing hAMYR3) in experiment [1] is 0.031 nM. Besides, the hCT-R EC50 [nM] (cAMP formation, 1321N1 cells expressing hCT-R) in experiment [2] turned out to be 0.075 nM.

B2: Compound 6 (peptide)
peptide: {C20 diacid-γGlu}-RDGTAT[Orn]ATERLAHFLQRF[Sar]A[NMeI]LSSTEVGSNT[Hyp]-NH2
modifications: lactam 2-7
SMILES: CC[C@H](C)[C@@H](C(=O)N[C@@H](CC(C)C)C(=O)N[C@@H](CO)C(=O)N[C@@H](CO)C(=O)N[C@H](C(=O)N[C@@H](CCC(=O)O)C(=O)N[C@H](C(=O)NCC(=O)N[C@@H](CO)C(=O)N[C@@H](CC(N)=O)C(=O)N[C@H](C(=O)N1C[C@H](O)C[C@H]1C(N)=O)[C@@H](C)O)C(C)C)[C@@H](C)O)N(C)C(=O)[C@H](C)NC(=O)CN(C)C(=O)[C@H](Cc1ccccc1)NC(=O)[C@H](CCCNC(=N)N)NC(=O)[C@H](CCC(N)=O)NC(=O)[C@H](CC(C)C)NC(=O)[C@H](Cc1ccccc1)NC(=O)[C@H](Cc1c[nH]cn1)NC(=O)[C@H](C)NC(=O)[C@H](CC(C)C)NC(=O)[C@H](CCCNC(=N)N)NC(=O)[C@H](CCC(=O)O)NC(=O)[C@@H](NC(=O)[C@H](C)NC(=O)[C@@H]1CCCNC(=O)C[C@H](NC(=O)[C@H](CCCNC(=N)N)NC(=O)CC[C@H](NC(=O)CCCCCCCCCCCCCCCCCCC(=O)O)C(=O)O)C(=O)NCC(=O)N[C@@H]([C@@H](C)O)C(=O)N[C@@H](C)C(=O)N[C@@H]([C@@H](C)O)C(=O)N1)[C@@H](C)O
For the molecule B2, the hAMYR3 EC50 [nM] (cAMP formation, 1321N1 cells expressing hAMYR3) in experiment [1] was 0.011 nM. For the same molecule, the hCT-R EC50 [nM] (cAMP formation, 1321N1 cells expressing hCT-R) in experiment [2] came to 0.327 nM.

B3: Compound 7 (peptide)
peptide: {C20 diacid-γGlu}-RDGTAT[Orn]ATERLAHFLHRSSF[Sar]A[NMeI]LSSTEVGSNTP-NH2
modifications: lactam 2-7
SMILES: CC[C@H](C)[C@@H](C(=O)N[C@@H](CC(C)C)C(=O)N[C@@H](CO)C(=O)N[C@@H](CO)C(=O)N[C@H](C(=O)N[C@@H](CCC(=O)O)C(=O)N[C@H](C(=O)NCC(=O)N[C@@H](CO)C(=O)N[C@@H](CC(N)=O)C(=O)N[C@H](C(=O)N1CCC[C@H]1C(N)=O)[C@@H](C)O)C(C)C)[C@@H](C)O)N(C)C(=O)[C@H](C)NC(=O)CN(C)C(=O)[C@H](Cc1ccccc1)NC(=O)[C@H](CO)NC(=O)[C@H](CO)NC(=O)[C@H](CCCNC(=N)N)NC(=O)[C@H](Cc1c[nH]cn1)NC(=O)[C@H](CC(C)C)NC(=O)[C@H](Cc1ccccc1)NC(=O)[C@H](Cc1c[nH]cn1)NC(=O)[C@H](C)NC(=O)[C@H](CC(C)C)NC(=O)[C@H](CCCNC(=N)N)NC(=O)[C@H](CCC(=O)O)NC(=O)[C@@H](NC(=O)[C@H](C)NC(=O)[C@@H]1CCCNC(=O)C[C@H](NC(=O)[C@H](CCCNC(=N)N)NC(=O)CC[C@H](NC(=O)CCCCCCCCCCCCCCCCCCC(=O)O)C(=O)O)C(=O)NCC(=O)N[C@@H]([C@@H](C)O)C(=O)N[C@@H](C)C(=O)N[C@@H]([C@@H](C)O)C(=O)N1)[C@@H](C)O
For the molecule B3, the hAMYR3 EC50 [nM] (cAMP formation, 1321N1 cells expressing hAMYR3) in experiment [1] was 0.032 nM. Also, the hCT-R EC50 [nM] (cAMP formation, 1321N1 cells expressing hCT-R) in experiment [2] came to 0.289 nM.

B4: Compound 9 (peptide)
peptide: {C20 diacid-γGlu}-RDGTAT[Orn]ATQRLAHFLQRSSF[Sar]A[NMeI]PSSTEVGSNT[Hyp]-NH2
modifications: lactam 2-7
SMILES: CC[C@H](C)[C@@H](C(=O)N1CCC[C@H]1C(=O)N[C@@H](CO)C(=O)N[C@@H](CO)C(=O)N[C@H](C(=O)N[C@@H](CCC(=O)O)C(=O)N[C@H](C(=O)NCC(=O)N[C@@H](CO)C(=O)N[C@@H](CC(N)=O)C(=O)N[C@H](C(=O)N1C[C@H](O)C[C@H]1C(N)=O)[C@@H](C)O)C(C)C)[C@@H](C)O)N(C)C(=O)[C@H](C)NC(=O)CN(C)C(=O)[C@H](Cc1ccccc1)NC(=O)[C@H](CO)NC(=O)[C@H](CO)NC(=O)[C@H](CCCNC(=N)N)NC(=O)[C@H](CCC(N)=O)NC(=O)[C@H](CC(C)C)NC(=O)[C@H](Cc1ccccc1)NC(=O)[C@H](Cc1c[nH]cn1)NC(=O)[C@H](C)NC(=O)[C@H](CC(C)C)NC(=O)[C@H](CCCNC(=N)N)NC(=O)[C@H](CCC(N)=O)NC(=O)[C@@H](NC(=O)[C@H](C)NC(=O)[C@@H]1CCCNC(=O)C[C@H](NC(=O)[C@H](CCCNC(=N)N)NC(=O)CC[C@H](NC(=O)CCCCCCCCCCCCCCCCCCC(=O)O)C(=O)O)C(=O)NCC(=O)N[C@@H]([C@@H](C)O)C(=O)N[C@@H](C)C(=O)N[C@@H]([C@@H](C)O)C(=O)N1)[C@@H](C)O
For B4, the hAMYR3 EC50 [nM] (cAMP formation, 1321N1 cells expressing hAMYR3) in experiment [1] came to 0.013 nM. Further, in experiment [2], the hCT-R EC50 [nM] (cAMP formation, 1321N1 cells expressing hCT-R) came out at 0.027 nM.

B5: Compound 10 (peptide)
peptide: {C20 diacid-γGlu}-RDGTAT[Orn]ATERLARFLQRSSF[Sar]A[NMeI]LSSTEVGSNT[Hyp]-NH2
modifications: lactam 2-7
SMILES: CC[C@H](C)[C@@H](C(=O)N[C@@H](CC(C)C)C(=O)N[C@@H](CO)C(=O)N[C@@H](CO)C(=O)N[C@H](C(=O)N[C@@H](CCC(=O)O)C(=O)N[C@H](C(=O)NCC(=O)N[C@@H](CO)C(=O)N[C@@H](CC(N)=O)C(=O)N[C@H](C(=O)N1C[C@H](O)C[C@H]1C(N)=O)[C@@H](C)O)C(C)C)[C@@H](C)O)N(C)C(=O)[C@H](C)NC(=O)CN(C)C(=O)[C@H](Cc1ccccc1)NC(=O)[C@H](CO)NC(=O)[C@H](CO)NC(=O)[C@H](CCCNC(=N)N)NC(=O)[C@H](CCC(N)=O)NC(=O)[C@H](CC(C)C)NC(=O)[C@H](Cc1ccccc1)NC(=O)[C@H](CCCNC(=N)N)NC(=O)[C@H](C)NC(=O)[C@H](CC(C)C)NC(=O)[C@H](CCCNC(=N)N)NC(=O)[C@H](CCC(=O)O)NC(=O)[C@@H](NC(=O)[C@H](C)NC(=O)[C@@H]1CCCNC(=O)C[C@H](NC(=O)[C@H](CCCNC(=N)N)NC(=O)CC[C@H](NC(=O)CCCCCCCCCCCCCCCCCCC(=O)O)C(=O)O)C(=O)NCC(=O)N[C@@H]([C@@H](C)O)C(=O)N[C@@H](C)C(=O)N[C@@H]([C@@H](C)O)C(=O)N1)[C@@H](C)O
For the molecule B5, the hAMYR3 EC50 [nM] (cAMP formation, 1321N1 cells expressing hAMYR3) in experiment [1] came to 0.068 nM. The hCT-R EC50 [nM] (cAMP formation, 1321N1 cells expressing hCT-R) in experiment [2] came to 0.345 nM.

B6: Compound 11 (peptide)
peptide: {C20 diacid-γGlu}-EDGTATKATERLAHFLQRSSF[Sar]A[NMeI]LSSTEVGSNT[Hyp]-NH2
modifications: lactam 2-7
SMILES: CC[C@H](C)[C@@H](C(=O)N[C@@H](CC(C)C)C(=O)N[C@@H](CO)C(=O)N[C@@H](CO)C(=O)N[C@H](C(=O)N[C@@H](CCC(=O)O)C(=O)N[C@H](C(=O)NCC(=O)N[C@@H](CO)C(=O)N[C@@H](CC(N)=O)C(=O)N[C@H](C(=O)N1C[C@H](O)C[C@H]1C(N)=O)[C@@H](C)O)C(C)C)[C@@H](C)O)N(C)C(=O)[C@H](C)NC(=O)CN(C)C(=O)[C@H](Cc1ccccc1)NC(=O)[C@H](CO)NC(=O)[C@H](CO)NC(=O)[C@H](CCCNC(=N)N)NC(=O)[C@H](CCC(N)=O)NC(=O)[C@H](CC(C)C)NC(=O)[C@H](Cc1ccccc1)NC(=O)[C@H](Cc1c[nH]cn1)NC(=O)[C@H](C)NC(=O)[C@H](CC(C)C)NC(=O)[C@H](CCCNC(=N)N)NC(=O)[C@H](CCC(=O)O)NC(=O)[C@@H](NC(=O)[C@H](C)NC(=O)[C@@H]1CCCCNC(=O)C[C@H](NC(=O)[C@H](CCC(=O)O)NC(=O)CC[C@H](NC(=O)CCCCCCCCCCCCCCCCCCC(=O)O)C(=O)O)C(=O)NCC(=O)N[C@@H]([C@@H](C)O)C(=O)N[C@@H](C)C(=O)N[C@@H]([C@@H](C)O)C(=O)N1)[C@@H](C)O
For B6, the hAMYR3 EC50 [nM] (cAMP formation, 1321N1 cells expressing hAMYR3) in experiment [1] was 0.024 nM. Also, the hCT-R EC50 [nM] (cAMP formation, 1321N1 cells expressing hCT-R) in experiment [2] worked out at 0.068 nM.

B7: Compound 8 (peptide)
peptide: {C20 diacid-γGlu}-RDGTAT[Orn]ATQRLAHFLQRSSF[Sar]A[NMeI]LSSTEVGSNT[Hyp]-NH2
modifications: lactam 2-7
SMILES: CC[C@H](C)[C@@H](C(=O)N[C@@H](CC(C)C)C(=O)N[C@@H](CO)C(=O)N[C@@H](CO)C(=O)N[C@H](C(=O)N[C@@H](CCC(=O)O)C(=O)N[C@H](C(=O)NCC(=O)N[C@@H](CO)C(=O)N[C@@H](CC(N)=O)C(=O)N[C@H](C(=O)N1C[C@H](O)C[C@H]1C(N)=O)[C@@H](C)O)C(C)C)[C@@H](C)O)N(C)C(=O)[C@H](C)NC(=O)CN(C)C(=O)[C@H](Cc1ccccc1)NC(=O)[C@H](CO)NC(=O)[C@H](CO)NC(=O)[C@H](CCCNC(=N)N)NC(=O)[C@H](CCC(N)=O)NC(=O)[C@H](CC(C)C)NC(=O)[C@H](Cc1ccccc1)NC(=O)[C@H](Cc1c[nH]cn1)NC(=O)[C@H](C)NC(=O)[C@H](CC(C)C)NC(=O)[C@H](CCCNC(=N)N)NC(=O)[C@H](CCC(N)=O)NC(=O)[C@@H](NC(=O)[C@H](C)NC(=O)[C@@H]1CCCNC(=O)C[C@H](NC(=O)[C@H](CCCNC(=N)N)NC(=O)CC[C@H](NC(=O)CCCCCCCCCCCCCCCCCCC(=O)O)C(=O)O)C(=O)NCC(=O)N[C@@H]([C@@H](C)O)C(=O)N[C@@H](C)C(=O)N[C@@H]([C@@H](C)O)C(=O)N1)[C@@H](C)O
For the molecule B7, in experiment [1], the hAMYR3 EC50 [nM] (cAMP formation, 1321N1 cells expressing hAMYR3) is 0.059 nM. Besides, in experiment [2], the hCT-R EC50 [nM] (cAMP formation, 1321N1 cells expressing hCT-R) was found to be 0.129 nM.
